The values that follow come from patent US20100111916A1.

Common to all, as to test: cell-based or functional assay
The target in one experiment is CD80 (mouse) (UniProt Q00609).
In a further experiment the target is CD54 (mouse) (UniProt P13597).
Experiment [1] deals with H-2K^b/OVAI peptide complex (mouse).

UniProt P13597, sequence (P13597 28-537): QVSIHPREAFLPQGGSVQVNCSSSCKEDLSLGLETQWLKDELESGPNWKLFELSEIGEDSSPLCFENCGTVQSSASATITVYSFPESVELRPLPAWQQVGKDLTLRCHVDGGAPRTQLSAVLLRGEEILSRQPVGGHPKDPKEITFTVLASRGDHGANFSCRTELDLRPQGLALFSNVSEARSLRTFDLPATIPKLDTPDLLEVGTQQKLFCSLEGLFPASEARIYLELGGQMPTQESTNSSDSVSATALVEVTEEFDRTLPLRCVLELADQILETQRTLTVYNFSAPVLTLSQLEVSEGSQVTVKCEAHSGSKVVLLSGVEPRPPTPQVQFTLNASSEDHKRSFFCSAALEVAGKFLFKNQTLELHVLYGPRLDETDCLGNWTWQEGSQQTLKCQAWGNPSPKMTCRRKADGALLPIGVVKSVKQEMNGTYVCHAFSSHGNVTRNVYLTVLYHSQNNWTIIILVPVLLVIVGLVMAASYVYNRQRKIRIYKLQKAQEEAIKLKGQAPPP
UniProt Q00609, sequence (Q00609 38-306): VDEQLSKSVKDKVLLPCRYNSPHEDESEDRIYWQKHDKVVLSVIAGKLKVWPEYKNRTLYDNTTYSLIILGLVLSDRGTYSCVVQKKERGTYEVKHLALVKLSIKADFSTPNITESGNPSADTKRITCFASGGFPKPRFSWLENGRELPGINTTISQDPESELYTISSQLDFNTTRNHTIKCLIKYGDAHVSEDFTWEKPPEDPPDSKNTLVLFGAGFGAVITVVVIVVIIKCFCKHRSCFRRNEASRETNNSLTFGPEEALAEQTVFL

“CD28 (from UniProt P31041 20-218) (receptor)”: in the experiment with CD80 (mouse), the inhibition of Th-APC-stimulated OT I CD8^+ T cell proliferative response by CTLA-4/Ig fusion protein (15 µg/ml) was found to be 58%, the inhibition of aTEXO-stimulated OT I CD8^+ T cell proliferative response by CTLA-4/Ig (10 µg/ml) came to 49% and the inhibition of mDCEXO-stimulated OT I CD8^+ T cell proliferative response by CTLA-4/Ig (10 µg/ml) is 56%.
In the experiment with CD54 (mouse), “LFA-1 (from UniProt P24063 24-1162; P11835 24-771) (receptor)” gave an inhibition of Th-APC-stimulated OT I CD8^+ T cell proliferative response by anti-LFA-1 Ab (15 µg/ml) of 50%, an inhibition of aTEXO-stimulated OT I CD8^+ T cell proliferative response by anti-LFA-1 Ab (10 µg/ml) of 52% and an inhibition of mDCEXO-stimulated OT I CD8^+ T cell proliferative response by anti-LFA-1 Ab (10 µg/ml) of 49%.
Regarding OVA-specific TCR of OT I CD8^+ T cells, in experiment [1], the inhibition of Th-APC-stimulated OT I CD8^+ T cell proliferative response by anti-MHC class I Ab (15 µg/ml) is 38%, the inhibition of aTEXO-stimulated OT I CD8^+ T cell proliferative response by anti-H-2K^b Ab (10 µg/ml) was found to be 49% and the inhibition of mDCEXO-stimulated OT I CD8^+ T cell proliferative response by anti-MHC class I Ab (10 µg/ml) turned out to be 62%.
